Source: patent US20210269549A1, “ANTI-SAS1B ANTIBODIES, ASSOCIATED METHODS OF USE, AND COMPOSITIONS AND METHODS FOR DETECTING AND TREATING CANCER” (UNIVERSITY OF VIRGINIA PATENT FOUNDATION, priority 2015, published 2021)
Values joined by “and” are separate entries in the source; they are usually repeats but may differ in a detail not shown here. Identical values can stand only once. “Also recorded” adds a separate entry of the source.

T1: SAS1B extracellular domain (aa 164-431) polypeptide (Homo sapiens, UniProt Q6HA08)
T1 construct: SAS1B extracellular domain (aa 164-431) polypeptide; made in house
T1 sequence (Q6HA08 164-431): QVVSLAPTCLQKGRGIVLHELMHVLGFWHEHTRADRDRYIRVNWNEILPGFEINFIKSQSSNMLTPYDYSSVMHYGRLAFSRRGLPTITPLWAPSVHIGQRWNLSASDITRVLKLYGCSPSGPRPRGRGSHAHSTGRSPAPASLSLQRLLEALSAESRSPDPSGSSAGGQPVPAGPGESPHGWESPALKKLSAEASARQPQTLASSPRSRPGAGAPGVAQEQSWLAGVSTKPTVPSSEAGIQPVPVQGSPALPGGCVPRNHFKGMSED

T2: full-length SAS1B splice variant A polypeptide (Homo sapiens, UniProt Q6HA08)
T2 construct: made in house
T2 sequence (Q6HA08 24-431): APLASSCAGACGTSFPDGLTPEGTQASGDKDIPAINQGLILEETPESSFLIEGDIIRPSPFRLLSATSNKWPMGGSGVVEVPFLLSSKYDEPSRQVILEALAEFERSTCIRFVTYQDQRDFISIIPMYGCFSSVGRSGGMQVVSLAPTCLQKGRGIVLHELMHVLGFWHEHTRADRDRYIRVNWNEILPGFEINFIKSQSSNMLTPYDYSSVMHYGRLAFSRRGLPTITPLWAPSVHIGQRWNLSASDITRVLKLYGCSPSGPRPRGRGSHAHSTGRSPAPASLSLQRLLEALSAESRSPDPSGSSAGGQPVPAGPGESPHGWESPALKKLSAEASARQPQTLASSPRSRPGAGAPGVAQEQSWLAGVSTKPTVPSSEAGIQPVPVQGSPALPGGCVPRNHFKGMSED

B1: SB1: mouse anti-SAS1B monoclonal antibody, IgG2a; VH SEQ ID NO:12, VL SEQ ID NO:13 (antibody, listed as Mus musculus, V domains shown)
VH: EVQLQQSGPELVKPGSSVKISCKASGYTFTDYNMDWVKQSHGKSLEWIGAINPNNGGTSYNQKFKGKATLTVDKSSSTAYMELRSLTSEDSAVYYCATNEYWGQGTTLTVSS
VL: NIVMTQSPKSMSMSVGERVTLSCKASENVGTYVSWYQQKPEQSPKLLIYGASNRYTGVPDRFTGSGSATDFTLTISSVQAEDLADYHCGQSYSYPWTFGGGTKLEIK
B2: SB2: mouse anti-human SAS1B monoclonal antibody, IgG2b; VH SEQ ID NO:14, VL SEQ ID NO:15 (antibody, listed as Mus musculus, V domains shown)
VH: EVQLQQSGPELVKPGSSVKISCKASGYTFTDYNMVWVKQSHGKSLEWIGAVNPNNGGTSYNQKFKGKATLTVDKSSSTAYMELRSLTSEDSAVYYCVPNWDWFAYWGQGTLVTVSA
VL: DVLMTQTPLSLPVSLGDQASISCRSSQSLVHSNGNTYLEWYLQKPGQSPNLLIYKVSNRFSGVPDRFSGSGSGTDFTLKISRVEAEDLGVYYCFQGSHVPFTFGSGTKLEIK
B3: SB4: mouse anti-human SAS1B monoclonal antibody, IgG2a; VH SEQ ID NO:16, VL SEQ ID NO:17 (antibody, listed as Mus musculus, V domains shown)
VH: EVQLQQSGPELVKPGSSVKISCKPSGYTFTDYNMVWMKQSHGKSLEWIGAINPNNGGTTYNQKFKGKATLTVDKSSSTAYMELRSLTSEDSAVYYCAPNWDWFAYWGQGTLVTVSA
VL: DVLMTQTPLSLPVSLGDQASISCRSSQSILHSNGNTYLEWYLQKPGQSPKLLIYKVSNRFSGVPDRFSGSGSGTDFTLKISRVEAEDLGVYYCFQGSHVPFTFGSGTKLEIK
B4: SB5: mouse anti-human SAS1B monoclonal antibody, IgG2b; VH SEQ ID NO:16, VL SEQ ID NO:18 (antibody, listed as Mus musculus, V domains shown)
VH: EVQLQQSGPELVKPGSSVKISCKPSGYTFTDYNMVWMKQSHGKSLEWIGAINPNNGGTTYNQKFKGKATLTVDKSSSTAYMELRSLTSEDSAVYYCAPNWDWFAYWGQGTLVTVSA
VL: DVLMTQIPLSLPVSLGDQASISCRSSQSILHSNGNTYLEWYLQKPGQSPKLLIYKVSNRFSGVPDRFSGSGSGTDFTLKISRVEAEDLGVYYCFQGSHVPFTFGSGTKLEIK
B5: SB3: mouse anti-human SAS1B monoclonal antibody, IgG2b; VH SEQ ID NO:14, VL SEQ ID NO:15 (antibody, listed as Mus musculus, V domains shown)
VH: EVQLQQSGPELVKPGSSVKISCKASGYTFTDYNMVWVKQSHGKSLEWIGAVNPNNGGTSYNQKFKGKATLTVDKSSSTAYMELRSLTSEDSAVYYCVPNWDWFAYWGQGTLVTVSA
VL: DVLMTQTPLSLPVSLGDQASISCRSSQSLVHSNGNTYLEWYLQKPGQSPNLLIYKVSNRFSGVPDRFSGSGSGTDFTLKISRVEAEDLGVYYCFQGSHVPFTFGSGTKLEIK

What was measured:
[1] = molecular target: T1, SAS1B extracellular domain (aa 164-431) polypeptide; experiment: Western blot with mammalian cell-expressed recombinant SAS1B, extracellular domain; format: binding
Protocol: (§1) SAS1B monoclonal antibodies were analyzed with mammalian cell-expressed recombinant SAS1B by western blotting.

[2] = tested on: M1 (renal cancer cell line); experiment: Live cell surface indirect immunofluorescence, M1; format: cell-based; conditions: live cells on ice; two cancer cell lines (M1, MMMT539)
Protocol: Anti-Human SAS1B mouse monoclonal antibodies reactive to SAS1B epitope on live cancer cell surfaces were identified by indirect immuno-fluorescence (IF) for the development of therapeutic antibodies. M1 (renal cancer cell line) and MMMT539 (uterine cancer cell line) cells were seeded at 20,000 cells in 1 ml per well on collagen coated coverslips in 24 well plates. The media was replaced 22 h post seeding. For antibody probing, cells were kept on ice for ˜8 to 18 min following 47 h post-seeding. The first antibody was added at 10 ug/ml, 20 ug/ml or 50 ug/ml in complete culture media with 15 mM NaN3 (pre-chilled), incubated on ice for 60 min, and the cells washed in complete culture media with 15 mM NaN3 in cold 1 ml, ×3. The second antibody, goat-antimouse-AF488 (pre-chilled), was added to the wells at 5 ug/ml in complete culture media with 15 mM NaN3 for 60 min on ice. The cells were washed in complete media with 15 mM NaN3, 1 ml, ×3 on ice. The cells were fixed in 4% PFA in PBS for 20 minutes on ice. The cells were washed in distilled water at RT, 1 ml, ×1 and mounted in 8 ul of SLOWFADE® Diamond Antifade Mountant with DAPI. An anti-EGFR monoclonal antibody was used as a positive control on live M1 cells. Epidermal growth factor receptor (EGFR) is a transmembrane glycoprotein and member of protein kinase superfamily. […] Anti-human CABYR monoclonal antibody 3A4 was used as a negative control on live MMMT539 cells. CABYR is a calcium binding cytoskeleton sperm protein with no transmembrane domain.

[3] = molecular target: T2, full-length SAS1B splice variant A polypeptide; experiment: Western blot with mammalian cell-expressed recombinant SAS1B, full length; format: binding
Protocol: as §1

[4] = tested on: MMMT539 (uterine cancer cell line); experiment: Live cell surface indirect immunofluorescence, MMMT539; format: cell-based, human; conditions: live cells on ice
Protocol: Anti-Human SAS1B mouse monoclonal antibodies reactive to SAS1B epitope on live cancer cell surfaces were identified by indirect immuno-fluorescence (IF) for the development of therapeutic antibodies. M1 (renal cancer cell line) and MMMT539 (uterine cancer cell line) cells were seeded at 20,000 cells in 1 ml per well on collagen coated coverslips in 24 well plates. The media was replaced 22 h post seeding. For antibody probing, cells were kept on ice for ˜8 to 18 min following 47 h post-seeding. The first antibody was added at 10 ug/ml, 20 ug/ml or 50 ug/ml in complete culture media with 15 mM NaN3 (pre-chilled), incubated on ice for 60 min, and the cells washed in complete culture media with 15 mM NaN3 in cold 1 ml, ×3. The second antibody, goat-antimouse-AF488 (pre-chilled), was added to the wells at 5 ug/ml in complete culture media with 15 mM NaN3 for 60 min on ice. The cells were washed in complete media with 15 mM NaN3, 1 ml, ×3 on ice. The cells were fixed in 4% PFA in PBS for 20 minutes on ice. The cells were washed in distilled water at RT, 1 ml, ×1 and mounted in 8 ul of SLOWFADE® Diamond Antifade Mountant with DAPI. An anti-EGFR monoclonal antibody was used as a positive control on live M1 cells. Epidermal growth factor receptor (EGFR) is a transmembrane glycoprotein and member of protein kinase superfamily. […] Most of the cells expressed the receptor and validated the live cell surface IF staining methodology for the screening of anti-human SAS1B mouse monoclonal antibodies. The receptor molecule was found on the cell surfaces. Anti-human CABYR monoclonal antibody 3A4 was used as a negative control on live MMMT539 cells. CABYR is a calcium binding cytoskeleton sperm protein with no transmembrane domain.

[5] = tested on: human uterine cancer cells; experiment: ADC assay on human uterine cancer cells using Fab-anti-mouse IgG Fc (Duocarmycin DM conjugated or unconjugated); format: cell-based; conditions: for Cytotoxic effect / Viability: 4 days; for Cell killing effects as antibody-duocarmycin conjugates on SAS1B+ human tumor cells (FIG. 28): uterine tumor cells in vitro; for Viability: 0.01 nM mAb
Protocol: The cytotoxic effect of anti-human SAS1B monoclonal antibodies SB1, SB3 and SB4 on human uterine cancer cells was investigated by ADC assay using Fab-anti-mouse IgG Fc conjugated to Duocarmycin DM with a cleavable linker. An average of 3 experiments were done in triplicate. […] At 0.01 nM the viability was only 40% compared to ˜80% viability for SB4 mAb.
The cytotoxic effect of anti-human SAS1B mAbs SB1, SB2, SB3, SB4 and SB5 on human uterine cancer cells by ADC assay using unconjugated Fab-anti-mouse IgG Fc was examined. An average of 1 or 2 experiments in triplicate were performed. […] See FIGS. 10A-B. The cytotoxic effect of anti-human SAS1B mAbs SB1, SB2, SB3, SB4, and SB5 was tested on human uterine cancer cells by ADC assay using Fab-anti-mouse IgG Fc conjugated to Duocarmycin DM with cleavable linker. An average of 3 experiments were completed in triplicate. […] At 0.01 nM the viability for SB3, SB2, SB4 and SB5 were 42%, 66%, 80% and 87% respectively.

[6] = Fab-anti-mouse IgG Fc conjugated to Duocarmycin DM with cleavable linker
[7] = isotype-specific unconjugated Fab

Molecule | Reaction with SAS1B extracellular domain (aa 164-431) polypeptide [1] | Surface labelling of live cancer cells [2] | Reaction with full-length SAS1B splice variant A polypeptide [3] | Fluorescence signal on the surface of live uterine tumor cells [4] | Cytotoxic effect [5, 6] | Cytotoxic effect [5, 7] | Cell killing effects as antibody-duocarmycin conjugates on SAS1B+ human tumor cells (FIG. 28) [5] | Viability [5, 6]
B1 | none of the them reacted | labelled the surface | reacted with the full-length SAS1B splice variant A polypeptide | clear fluorescence signal | no cytotoxic effect | no cytotoxic effect | no cytotoxic effects | –
B2 | none of the them reacted | labelled the surface | reacted with the full-length SAS1B splice variant A polypeptide | clear fluorescence signal | strong cytotoxic effect at 0.1 nM and higher concentrations | no cytotoxic effect | sub-nanomolar concentrations | –
B3 | none of the them reacted | labelled the surface | reacted with the full-length SAS1B splice variant A polypeptide | clear fluorescence signal | cytotoxic effect at 0.01, 0.1 nM and higher concentrations; also recorded: strong cytotoxic effect at 0.1 nM and higher concentrations | no cytotoxic effect | sub-nanomolar concentrations | ~80%
B4 | none of the them reacted | labelled the surface | reacted with the full-length SAS1B splice variant A polypeptide | clear fluorescence signal | strong cytotoxic effect at 0.1 nM and higher concentrations | no cytotoxic effect | sub-nanomolar concentrations | –
B5 | none of the them reacted | labelled the surface | reacted with the full-length SAS1B splice variant A polypeptide | clear fluorescence signal | strongest cytotoxic effect; also recorded: strong cytotoxic effect at 0.1 nM and higher concentrations | no cytotoxic effect | sub-nanomolar concentrations | 40% and 42%
